This note sets out measurements from patent US20200392203A1 (YEDA RESEARCH AND DEVELOPMENT, published 2020).

Assay [1] deals with native spike complex (glycoprotein complex, GPC) of Junin virus (JUNV) (Junin virus (JUNV)). As to the kind of experiment: cell-based or functional assay.
Assay [2] addresses native spike complex (glycoprotein complex, GPC) of Sabia virus (SABV) (Sabia virus (SABV)). As to the kind of experiment: cell-based or functional assay.
Assay [3] addresses T1, native spike complex (glycoprotein complex, GPC) of Machupo virus (MACV) (Machupo virus (MACV), UniProt Q6IUF7 2-496).
T1 sequence: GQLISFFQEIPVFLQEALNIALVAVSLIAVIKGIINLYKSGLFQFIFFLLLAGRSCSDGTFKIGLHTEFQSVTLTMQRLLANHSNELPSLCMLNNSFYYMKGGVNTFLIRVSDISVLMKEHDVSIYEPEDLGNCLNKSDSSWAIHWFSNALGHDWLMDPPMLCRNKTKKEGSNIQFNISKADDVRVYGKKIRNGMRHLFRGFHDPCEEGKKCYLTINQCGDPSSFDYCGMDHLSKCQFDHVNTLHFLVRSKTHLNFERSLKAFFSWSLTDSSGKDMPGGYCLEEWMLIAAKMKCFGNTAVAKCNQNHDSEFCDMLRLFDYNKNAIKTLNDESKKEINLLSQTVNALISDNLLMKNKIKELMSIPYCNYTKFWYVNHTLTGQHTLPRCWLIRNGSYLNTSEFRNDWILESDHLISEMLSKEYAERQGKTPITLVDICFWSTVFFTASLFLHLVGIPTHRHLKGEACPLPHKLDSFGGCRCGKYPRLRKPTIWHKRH
As to the kind of experiment: cell-based or functional assay.

The target in assay [4] is GP1JUNV-Fc (GP1 domain of Junin virus fused at its C' terminus to an antibody Fc portion) (Junin virus (JUNV)). As to the kind of experiment: SPR (Biacore T200), single cycle kinetics; […]; 1:1 model. (In SPR one partner is held on a chip, and binding of the other changes the refractive index at the surface.)
For assay [5], the target named is GP1MACV-Fc (GP1 domain of Machupo virus fused at its C' terminus to an antibody Fc portion) (Machupo virus (MACV)) (UniProt Q6IUF7). The assay is described as above.
Assay [6] has as its target GP1SBOV-Fc (GP1 domain of Sabia virus fused at its C' terminus to an antibody Fc portion) (Sabia virus (SABV)). As to the kind of experiment: SPR (Biacore T200), single-cycle kinetics; […]; 1:1 model fit.

Regarding “Arenacept (sAD fused at its C'-terminus to an Fc portion of IgG1) (Fc fusion)”, the IC50 values (µg/ml), neutralization of pseudotyped virus in assay [1] came to 2.4 µg/mL; in assay [2], 3.5 µg/mL.

B1: soluble apical domain (sAD) of Neotoma albigula (White-throated woodrat) TfR1 (receptor)
chain: GSKIQVKCSAPNSVTITNASGGLYLVEYPEGYVAYSKATEVTGKLVHANFGTKKDFEDLDYAVNGSIVIVRAGKITIAEKVANAQSFNAIGVLIYKDRTKYPISRADEPLQGHSGLPSIPVQTISREAAEKLFQNMERDCPRSWNTDSSCKLELLQNRNVKLTVNNCLKE
The Kd is the concentration at which binding is half-saturated. A low value points to a tighter complex. On to B1, for which, in assay [3], the “pseudovirus neutralisation, IC50 (read off the curve)” value was roughly 10 nM. The figures for the Kd in assay [4], in assay [5] and in assay [6] were 1000 nM, 4 nM and 63 nM, respectively.
